Consider ten molecules from paper PMC2926940 (Nature structural & molecular biology, 2010).

Experiment [1] concerns the target c-Jun phosphopeptide (Homo sapiens) (UniProt P05412). The note with it: cited from earlier work.
For experiment [2], the target named is Abl SH2 domain, His-tagged (immobilised for SPR) (human) (UniProt P00519). The experiment is described as follows: SPR. (In general: Surface plasmon resonance follows binding to a sensor surface in real time, without labels.)
Experiment [3] deals with Blk SH2 domain spotted on the SH2 microarray (UniProt P51451). As to the kind of experiment: peptide or protein array.
Sequence of Blk SH2 domain spotted on the SH2 microarray (P51451 124-220): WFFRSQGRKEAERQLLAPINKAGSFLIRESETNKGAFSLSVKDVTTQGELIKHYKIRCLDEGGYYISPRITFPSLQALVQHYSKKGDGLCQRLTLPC
For experiment [4], the target named is Abl2 (Arg) SH2 domain spotted on the SH2 microarray (UniProt P42684). The experiment is described as follows: peptide or protein array.
Sequence of Abl2 (Arg) SH2 domain spotted on the SH2 microarray (P42684 173-263): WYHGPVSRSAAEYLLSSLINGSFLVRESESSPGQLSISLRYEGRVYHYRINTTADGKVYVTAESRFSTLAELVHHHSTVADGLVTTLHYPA
Experiment [5] addresses Grb7 SH2 spotted on the SH2 microarray (UniProt Q14451). The experiment is described as follows: peptide or protein array.
Experiment [6] deals with Abl SH2 domain spotted on the SH2 microarray (human). As to the kind of experiment: peptide or protein array.
The target of experiment [7] is tandem SH2 domains of Syk spotted on the SH2 microarray. As to the kind of experiment: peptide or protein array.
Experiment [8] has as its target T1, Abl SH2 domain, His-tagged (immobilised for SPR) (human, UniProt P00519-2).
T1 sequence: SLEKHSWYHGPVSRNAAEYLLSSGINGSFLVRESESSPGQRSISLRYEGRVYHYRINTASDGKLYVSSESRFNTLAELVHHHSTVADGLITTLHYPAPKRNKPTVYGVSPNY
As to the kind of experiment: SPR.

Sequence of Grb7 SH2 spotted on the SH2 microarray (Q14451 431-527): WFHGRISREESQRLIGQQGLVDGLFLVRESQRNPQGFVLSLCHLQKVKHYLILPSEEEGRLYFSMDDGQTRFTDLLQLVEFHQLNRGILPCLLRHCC
Sequence of c-Jun phosphopeptide (Homo sapiens) (P05412 whole entry, the tested form may be a part): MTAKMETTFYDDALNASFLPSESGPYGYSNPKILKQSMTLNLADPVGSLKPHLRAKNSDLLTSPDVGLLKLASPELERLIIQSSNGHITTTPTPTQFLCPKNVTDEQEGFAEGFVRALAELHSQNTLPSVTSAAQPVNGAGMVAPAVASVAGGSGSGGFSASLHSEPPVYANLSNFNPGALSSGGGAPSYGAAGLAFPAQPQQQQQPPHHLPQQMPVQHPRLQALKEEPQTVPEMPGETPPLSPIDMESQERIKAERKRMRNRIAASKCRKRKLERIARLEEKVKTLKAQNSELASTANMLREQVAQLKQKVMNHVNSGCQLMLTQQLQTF

Broadly, the Kd is the constant that tells how readily two partners part at equilibrium. As to Abl SH2 (from UniProt P00519), the Kd in experiment [1] is 7000 nM. As to HA4 E52A (designed binder), the ΔΔG of binding against HA4 in experiment [2] is 2.4 kcal/mol. For the molecule HA4 R38A (designed binder), the ΔΔG of binding against HA4 in experiment [2] stood at 2.2 kcal/mol.

In experiment [2], HA4 Y35A (designed binder) displayed a ΔΔG of binding against HA4 of 0.8 kcal/mol. Regarding monobody HA4 (designed binder), the Kd in experiment [2] was 7 nM.

For the molecule “monobody HA4 labelled with DyLight 800 (designed binder)”, the Kd was found to be 109 nM in experiment [3]; 18 nM in experiment [4]; 169 nM in experiment [5]; 22 nM in experiment [6]; 28 nM in experiment [7].

B1: HA4 Y36A (designed binder)
chain: GSSVSSVPTKLEVVAATPTSLLISWDAPMSSSSVYAYRITYGETGGNSPVQEFTVPYSSSTATISGLSPGVDYTITVYAWGEDSAGYMFMYSPISINYRTC
With B1, in experiment [8], the “ΔΔG of binding against HA4” value is at least 3.8 kcal/mol.

B2: HA4 M88A (designed binder)
chain: GSSVSSVPTKLEVVAATPTSLLISWDAPMSSSSVYYYRITYGETGGNSPVQEFTVPYSSSTATISGLSPGVDYTITVYAWGEDSAGYAFMYSPISINYRTC
Consider B2, for which the “ΔΔG of binding against HA4” value in experiment [8] was at least 3.8 kcal/mol.

B3: HA4_(Y87A) (designed binder)
chain: GSSVSSVPTKLEVVAATPTSLLISWDAPMSSSSVYYYRITYGETGGNSPVQEFTVPYSSSTATISGLSPGVDYTITVYAWGEDSAGAMFMYSPISINYRTC
For B3, in experiment [8], the “ΔΔG of binding against HA4” value is at least 3.8 kcal/mol.

B4: HA4 W80A (designed binder)
chain: GSSVSSVPTKLEVVAATPTSLLISWDAPMSSSSVYYYRITYGETGGNSPVQEFTVPYSSSTATISGLSPGVDYTITVYAAGEDSAGYMFMYSPISINYRTC
B4: the “ΔΔG of binding against HA4” value in experiment [8] is at least 3.8 kcal/mol.
